Data reported in patent US20140072613A1, “Compositions and Methods for Treating Cutaneous Scarring” (priority 2012, published 2014).

What was measured:
Assay in all cases: biochemical
Type in all cases: biochemical
266 human kinases [1] = molecular target: 266 human kinases (Homo sapiens, UniProt P00533, L858R); details: EGFR(L858R)(h); 100 μM
From the text: (§1) Specifically, in these assays, a positively charged substrate is phosphorylated with a radiolabeled phosphate group from an ATP if the kinase is not inhibited by an inhibitor peptide. The positively charged substrate then is attracted to a negatively charged filter membrane, quantified with a scintillation counter, and compared to a 100% activity control.

266 human kinases [2] = molecular target: 266 human kinases (Homo sapiens, UniProt P09619); details: PDGFRβ(h); 100 μM
From the text: as §1

266 human kinases [3] = molecular target: 266 human kinases (Homo sapiens, UniProt P10721, D816V); details: cKit(D816V)(h); 100 μM
From the text: as §1

266 human kinases [4] = molecular target: 266 human kinases (Homo sapiens, UniProt P22455); details: FGFR4(h); 100 μM
From the text: as §1

266 human kinases [5] = molecular target: 266 human kinases (Homo sapiens, UniProt P42685); details: PTK5(h); 100 μM
From the text: as §1

266 human kinases [6] = molecular target: 266 human kinases (Homo sapiens, UniProt P48730); details: CK1δ(h); 100 μM
From the text: as §1

266 human kinases [7] = molecular target: T1, 266 human kinases (Homo sapiens, UniProt P51813); details: Bmx(h); 100 μM
T1 sequence (P51813 1-675): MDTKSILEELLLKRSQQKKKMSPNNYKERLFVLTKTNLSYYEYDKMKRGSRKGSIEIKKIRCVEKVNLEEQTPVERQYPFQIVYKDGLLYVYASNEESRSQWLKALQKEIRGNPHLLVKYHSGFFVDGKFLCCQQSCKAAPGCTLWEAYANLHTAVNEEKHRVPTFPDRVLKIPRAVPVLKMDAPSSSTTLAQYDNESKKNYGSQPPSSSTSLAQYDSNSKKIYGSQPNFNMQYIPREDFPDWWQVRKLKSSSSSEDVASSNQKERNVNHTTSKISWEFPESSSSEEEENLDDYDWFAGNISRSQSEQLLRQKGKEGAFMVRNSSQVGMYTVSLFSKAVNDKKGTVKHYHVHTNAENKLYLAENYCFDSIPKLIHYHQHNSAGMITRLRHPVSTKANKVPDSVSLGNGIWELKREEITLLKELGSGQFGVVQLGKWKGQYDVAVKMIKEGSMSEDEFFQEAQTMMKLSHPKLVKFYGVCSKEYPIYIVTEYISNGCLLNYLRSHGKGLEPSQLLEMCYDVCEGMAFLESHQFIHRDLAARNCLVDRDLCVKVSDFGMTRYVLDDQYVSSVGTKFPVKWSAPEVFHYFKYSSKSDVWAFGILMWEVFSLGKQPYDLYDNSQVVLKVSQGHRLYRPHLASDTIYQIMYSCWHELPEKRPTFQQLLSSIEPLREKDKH
From the text: as §1

266 human kinases [8] = molecular target: 266 human kinases (Homo sapiens, UniProt P54764); details: EphA4(h); 100 μM
From the text: as §1

266 human kinases [9] = molecular target: 266 human kinases (Homo sapiens, UniProt Q05655); details: PKGδ(h); 100 μM
From the text: as §1

266 human kinases [10] = molecular target: T2, 266 human kinases (Homo sapiens, UniProt Q96BR1); details: SGK3(h); 100 μM
T2 sequence (Q96BR1 1-496): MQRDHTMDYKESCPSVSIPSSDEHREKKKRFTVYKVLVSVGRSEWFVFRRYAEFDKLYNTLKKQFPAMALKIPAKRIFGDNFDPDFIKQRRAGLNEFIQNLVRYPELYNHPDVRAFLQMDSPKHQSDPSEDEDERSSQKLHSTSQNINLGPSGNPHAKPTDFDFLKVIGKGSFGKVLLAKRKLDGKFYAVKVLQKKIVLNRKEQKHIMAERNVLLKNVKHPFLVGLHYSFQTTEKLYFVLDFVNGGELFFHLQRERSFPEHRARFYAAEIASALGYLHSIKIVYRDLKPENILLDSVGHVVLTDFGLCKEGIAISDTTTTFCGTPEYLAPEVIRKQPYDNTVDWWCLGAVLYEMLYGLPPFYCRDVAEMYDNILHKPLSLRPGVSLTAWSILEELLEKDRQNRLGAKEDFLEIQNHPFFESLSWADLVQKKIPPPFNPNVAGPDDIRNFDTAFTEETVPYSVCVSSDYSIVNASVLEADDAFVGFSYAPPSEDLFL
From the text: as §1

266 human kinases [11] = molecular target: T3, 266 human kinases (Homo sapiens, UniProt Q9BZL6); details: PKD2(h); 100 μM
T3 sequence (Q9BZL6 1-878): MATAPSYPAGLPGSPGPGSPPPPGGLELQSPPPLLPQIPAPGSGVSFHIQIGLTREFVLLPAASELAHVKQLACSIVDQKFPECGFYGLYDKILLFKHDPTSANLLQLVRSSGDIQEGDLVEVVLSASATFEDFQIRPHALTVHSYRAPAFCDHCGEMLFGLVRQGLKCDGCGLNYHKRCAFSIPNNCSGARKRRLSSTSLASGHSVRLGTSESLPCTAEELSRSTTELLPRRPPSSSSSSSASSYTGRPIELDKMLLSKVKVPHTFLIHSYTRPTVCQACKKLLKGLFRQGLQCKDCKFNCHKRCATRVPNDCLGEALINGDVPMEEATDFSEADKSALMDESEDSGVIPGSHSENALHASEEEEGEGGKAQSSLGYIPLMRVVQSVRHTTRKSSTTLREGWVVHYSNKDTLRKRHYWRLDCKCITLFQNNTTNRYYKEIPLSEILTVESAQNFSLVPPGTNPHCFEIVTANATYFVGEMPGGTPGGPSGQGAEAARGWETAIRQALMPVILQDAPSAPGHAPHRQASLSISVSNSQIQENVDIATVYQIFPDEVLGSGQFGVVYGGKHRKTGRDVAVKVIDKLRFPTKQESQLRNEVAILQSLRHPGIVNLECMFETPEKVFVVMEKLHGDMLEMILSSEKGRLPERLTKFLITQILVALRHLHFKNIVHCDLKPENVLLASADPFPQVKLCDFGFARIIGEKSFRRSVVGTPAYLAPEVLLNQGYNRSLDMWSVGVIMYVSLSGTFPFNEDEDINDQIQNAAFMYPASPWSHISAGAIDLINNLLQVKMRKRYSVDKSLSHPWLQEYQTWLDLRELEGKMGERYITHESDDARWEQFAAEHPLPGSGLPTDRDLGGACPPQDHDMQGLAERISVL
From the text: as §1

Chain of 266 human kinases (Homo sapiens, UniProt P42685) (P42685 whole entry): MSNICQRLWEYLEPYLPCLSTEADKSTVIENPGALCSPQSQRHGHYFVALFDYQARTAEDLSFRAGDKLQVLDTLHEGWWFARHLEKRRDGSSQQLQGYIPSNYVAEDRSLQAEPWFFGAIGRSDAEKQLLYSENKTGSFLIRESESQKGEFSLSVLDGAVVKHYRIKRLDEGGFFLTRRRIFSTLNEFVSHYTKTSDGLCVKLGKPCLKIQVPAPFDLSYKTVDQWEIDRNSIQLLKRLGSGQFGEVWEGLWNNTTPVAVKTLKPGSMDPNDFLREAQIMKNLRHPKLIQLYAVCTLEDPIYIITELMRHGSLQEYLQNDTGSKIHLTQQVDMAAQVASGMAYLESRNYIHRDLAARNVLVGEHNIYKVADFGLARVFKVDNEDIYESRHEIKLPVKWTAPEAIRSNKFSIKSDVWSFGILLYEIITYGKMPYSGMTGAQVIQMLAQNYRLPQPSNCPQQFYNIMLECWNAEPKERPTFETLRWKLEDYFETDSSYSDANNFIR
Chain of 266 human kinases (Homo sapiens, UniProt P54764) (P54764 20-986): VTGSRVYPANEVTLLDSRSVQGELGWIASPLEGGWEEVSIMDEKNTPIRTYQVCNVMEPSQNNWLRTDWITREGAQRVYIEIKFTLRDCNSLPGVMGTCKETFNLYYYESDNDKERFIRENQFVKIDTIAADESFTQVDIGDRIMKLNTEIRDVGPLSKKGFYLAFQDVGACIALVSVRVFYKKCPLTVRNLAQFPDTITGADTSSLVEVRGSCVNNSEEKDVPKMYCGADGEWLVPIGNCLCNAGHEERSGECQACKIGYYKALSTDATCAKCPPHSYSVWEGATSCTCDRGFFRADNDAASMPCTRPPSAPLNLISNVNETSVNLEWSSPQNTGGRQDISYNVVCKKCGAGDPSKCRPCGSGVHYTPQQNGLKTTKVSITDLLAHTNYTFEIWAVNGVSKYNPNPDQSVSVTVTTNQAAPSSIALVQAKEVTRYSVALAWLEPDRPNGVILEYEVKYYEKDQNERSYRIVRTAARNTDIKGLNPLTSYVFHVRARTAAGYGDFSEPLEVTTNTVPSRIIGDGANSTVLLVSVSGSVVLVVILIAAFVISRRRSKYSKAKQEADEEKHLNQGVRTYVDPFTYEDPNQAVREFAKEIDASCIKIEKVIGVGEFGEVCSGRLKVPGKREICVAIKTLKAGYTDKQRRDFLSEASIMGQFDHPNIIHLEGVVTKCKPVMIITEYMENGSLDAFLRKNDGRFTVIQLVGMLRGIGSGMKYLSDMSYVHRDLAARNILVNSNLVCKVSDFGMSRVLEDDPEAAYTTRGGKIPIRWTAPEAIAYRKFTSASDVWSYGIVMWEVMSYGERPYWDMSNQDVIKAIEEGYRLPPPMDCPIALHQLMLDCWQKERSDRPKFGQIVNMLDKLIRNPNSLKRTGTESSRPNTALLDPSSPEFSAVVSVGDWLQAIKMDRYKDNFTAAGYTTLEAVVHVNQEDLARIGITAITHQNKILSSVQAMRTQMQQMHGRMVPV
Chain of 266 human kinases (Homo sapiens, UniProt P09619) (P09619 33-1106): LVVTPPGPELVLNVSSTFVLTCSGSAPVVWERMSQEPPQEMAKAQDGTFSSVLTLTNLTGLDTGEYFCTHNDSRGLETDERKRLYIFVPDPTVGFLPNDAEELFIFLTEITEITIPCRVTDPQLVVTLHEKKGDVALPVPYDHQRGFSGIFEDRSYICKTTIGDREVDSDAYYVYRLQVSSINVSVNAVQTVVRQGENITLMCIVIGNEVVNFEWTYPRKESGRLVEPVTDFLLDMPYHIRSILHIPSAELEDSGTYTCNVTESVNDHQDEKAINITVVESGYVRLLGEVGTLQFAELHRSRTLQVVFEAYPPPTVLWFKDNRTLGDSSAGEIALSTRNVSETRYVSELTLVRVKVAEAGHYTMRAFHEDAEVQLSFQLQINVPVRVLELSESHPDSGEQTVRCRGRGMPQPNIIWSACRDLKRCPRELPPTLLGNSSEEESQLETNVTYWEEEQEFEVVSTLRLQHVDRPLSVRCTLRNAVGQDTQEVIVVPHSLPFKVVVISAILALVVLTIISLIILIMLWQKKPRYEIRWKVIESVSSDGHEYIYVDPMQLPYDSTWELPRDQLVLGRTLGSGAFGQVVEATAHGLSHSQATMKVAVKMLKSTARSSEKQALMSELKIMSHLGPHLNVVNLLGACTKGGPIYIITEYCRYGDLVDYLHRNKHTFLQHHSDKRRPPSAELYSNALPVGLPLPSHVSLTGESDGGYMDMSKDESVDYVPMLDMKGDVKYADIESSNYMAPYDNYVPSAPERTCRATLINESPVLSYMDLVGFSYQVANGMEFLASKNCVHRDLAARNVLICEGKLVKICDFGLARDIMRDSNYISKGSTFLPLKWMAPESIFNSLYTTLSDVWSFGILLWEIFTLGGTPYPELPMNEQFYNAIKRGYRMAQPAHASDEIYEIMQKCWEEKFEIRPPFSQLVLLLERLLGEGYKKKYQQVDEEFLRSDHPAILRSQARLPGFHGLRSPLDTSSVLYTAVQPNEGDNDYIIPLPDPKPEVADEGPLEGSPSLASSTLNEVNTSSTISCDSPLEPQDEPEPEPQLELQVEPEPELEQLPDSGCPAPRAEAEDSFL
Chain of 266 human kinases (Homo sapiens, UniProt Q05655) (Q05655 whole entry): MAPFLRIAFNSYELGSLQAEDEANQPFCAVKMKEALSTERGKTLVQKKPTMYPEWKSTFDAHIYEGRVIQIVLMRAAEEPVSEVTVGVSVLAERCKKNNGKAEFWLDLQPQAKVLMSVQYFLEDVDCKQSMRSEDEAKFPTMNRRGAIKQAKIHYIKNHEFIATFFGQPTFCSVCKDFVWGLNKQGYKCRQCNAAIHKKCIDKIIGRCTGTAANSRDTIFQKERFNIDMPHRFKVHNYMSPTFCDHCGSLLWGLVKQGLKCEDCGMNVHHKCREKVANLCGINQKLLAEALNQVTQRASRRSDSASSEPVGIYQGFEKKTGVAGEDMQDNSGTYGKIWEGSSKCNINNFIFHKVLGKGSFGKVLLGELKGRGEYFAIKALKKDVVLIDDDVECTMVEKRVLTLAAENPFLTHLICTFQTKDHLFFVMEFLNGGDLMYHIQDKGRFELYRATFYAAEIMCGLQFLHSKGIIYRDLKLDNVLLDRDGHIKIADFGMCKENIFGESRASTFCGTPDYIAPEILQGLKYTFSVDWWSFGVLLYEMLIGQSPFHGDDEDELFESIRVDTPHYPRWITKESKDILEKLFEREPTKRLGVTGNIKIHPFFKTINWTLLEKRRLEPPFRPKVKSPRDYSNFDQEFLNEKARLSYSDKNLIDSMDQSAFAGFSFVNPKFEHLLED
Chain of 266 human kinases (Homo sapiens, UniProt P48730) (P48730 whole entry): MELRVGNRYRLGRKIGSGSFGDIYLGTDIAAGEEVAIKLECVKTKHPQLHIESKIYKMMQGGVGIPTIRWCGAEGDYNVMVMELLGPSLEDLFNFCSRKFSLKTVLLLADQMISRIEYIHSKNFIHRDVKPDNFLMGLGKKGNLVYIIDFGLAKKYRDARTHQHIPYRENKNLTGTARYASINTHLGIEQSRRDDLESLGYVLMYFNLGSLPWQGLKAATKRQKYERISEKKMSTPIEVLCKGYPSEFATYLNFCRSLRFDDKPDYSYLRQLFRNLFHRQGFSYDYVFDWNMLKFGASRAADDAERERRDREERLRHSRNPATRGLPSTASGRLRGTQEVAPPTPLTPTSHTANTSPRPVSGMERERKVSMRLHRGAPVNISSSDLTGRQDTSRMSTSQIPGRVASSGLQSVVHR

Sequence | % activity (266 human kinases [1]) | % activity (266 human kinases [2]) | % activity (266 human kinases [3]) | % activity (266 human kinases [4]) | % activity (266 human kinases [5]) | % activity (266 human kinases [6]) | % activity (266 human kinases [7]) | % activity (266 human kinases [8]) | % activity (266 human kinases [9]) | % activity (266 human kinases [10]) | % activity (266 human kinases [11])
HRRIKAWLKKIKALARQLGVAA (mammal) [MMI-0500] | 26% | 40% | 30% | 3% | 96% | 78% | 45% | 48% | 61% | −3% | 10%
YARAAARQARAKALNRQLGVA (mammal) [MMI-0200] | 120% | 137% | 118% | 75% | 108% | 92% | 76% | 127% | 101% | 58% | 78%
